In article PMC9109600:

Substrate: Nc1nc2nc[nH]c2c(=O)[nH]1
Assay: purified protein
Conditions: zinc active site

B1: Guanine deaminase (GDA) (Homo sapiens) (protein)
chain: MCAAQMPPLAHIFRGTFVHSTWTCPMEVLRDHLLGVSDSGKIVFLEEASQQEKLAKEWCFKPCEIRELSHHEFFMPGLVDTHIHASQYSFAGSSIDLPLLEWLTKYTFPAEHRFQNIDFAEEVYTRVVRRTLKNGTTTACYFATIHTDSSLLLADITDKFGQRAFVGKVCMDLNDTFPEYKETTEESIKETERFVSEMLQKNYSRVKPIVTPRFSLSCSETLMGELGNIAKTRDLHIQSHISENRDEVEAVKNLYPSYKNYTSVYDKNNLLTNKTVMAHGCYLSAEELNVFHERGASIAHCPNSNLSLSSGFLNVLEVLKHEVKIGLGTDVAGGYSYSMLDAIRRAVMVSNILLINKVNEKSLTLKEVFRLATLGGSQALGLDGEIGNFEVGKEFDAILINPKASDSPIDLFYGDFFGDISEAVIQKFLYLGDDRNIEEVYVGGKQVVPFSSSV
- Km: 12 ± 9 µM
